This is an account of results in patent US20100221257A1.

For this experiment, the target named is Antibody 6 (Eu3+ cryptate labelled, Example 5). The experiment is described as follows: HTRF competition: unlabelled test protein (maximum 100 nM) against biotin labelled human IL-1R1/Fc binding to cryptate labelled antibody. Background: Time-resolved FRET reads energy transfer from a long-lived donor to a nearby acceptor.
Sequence of Antibody 6 (Eu3+ cryptate labelled, Example 5) (VH, as listed by the source, chain 1 of 2): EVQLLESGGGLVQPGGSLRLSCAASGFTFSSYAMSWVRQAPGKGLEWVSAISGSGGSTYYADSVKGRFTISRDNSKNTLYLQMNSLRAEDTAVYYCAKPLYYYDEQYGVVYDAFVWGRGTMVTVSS
Sequence of Antibody 6 (Eu3+ cryptate labelled, Example 5) (VL, as listed by the source, chain 2 of 2): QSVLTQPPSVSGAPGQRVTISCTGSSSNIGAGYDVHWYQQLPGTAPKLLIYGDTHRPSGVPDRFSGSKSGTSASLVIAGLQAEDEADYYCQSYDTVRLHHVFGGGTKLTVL

B1: MoIL-1R1 (mouse IL-1R1 extracellular domain Fc fusion) (Fc fusion, UniProt P13504 20-338, looked up, not shown: a dimerising Fc or GST)
chain: LEIDVCTEYPNQIVLFLSVNEIDIRKCPLTPNKMHGDTIIWYKNDSKTPISADRDSRIHQQNEHLWFVPAKVEDSGYYYCIVRNSTYCLKTKVTVTVLENDPGLCYSTQATFPQRLHIAGDGSLVCPYVSYFKDENNELPEVQWYKNCKPLLLDNVSFFGVKDKLLVRNVAEEHRGDYICRMSYTFRGKQYPVTRVIQFITIDENKRDRPVILSPRNETIEADPGSMIQLICNVTGQFSDLVYWKWNGSEIEWNDPFLAEDYQFVEHPSTKRKYTLITTLNISEVKSQFYRYPFICVVKNTNIFESAHVQLIYPVPDFK
Take B1: the percentage inhibition at the highest concentration of chimera was 66%.
